Laboratory results: patent publication US9834772, “Aptamers bound human serum albumin and glycated human serum albumin” (National Science & Technology Development Agency)

Experiments:
Details in all cases: label: 5' biotin
[1] = target: T1, Human serum albumin (HSA) (Homo sapiens, UniProt P02768 P02768:25-609); assay: EMSA; 25 C 1 h; indirect ELISA also + at 0.2-200 nM (Table 9)
Procedure: (§1) After that the reaction was incubated at 4° C. for 1 minutes before use. Step 2: 1 µL HSA was mixed with 9 µL of aptamer against HSA and 1 µL of 0.4 µg/µL GHSA was mixed with 9 µL of aptamer against GHSA. Step 3: The reaction from step 2 was incubated at 25° C. for 1 hour and analyzed on 8% polyacrylamide gel at 100 V for 30 minutes. Step 4: Aptamers on the polyacrylamide gel from step 3 were transferred to nylon membrane (Amersham Hybond-N+; GE Healthcare). Classical DNA/RNA transferring method was used. The transferring buffer was SSC (150 mM […] and 15 mM Sodium citrate, pH 7.0) and incubation time was 12 h. Step 5: Aptamer analysis using Phototope®-Star Detection Kit (New England Biolabs) Nylon membrane was removed from the transferring set up and put in the clear plastic container containing solution A (5% Sodium Dodecyl Sulfate (SDS), 125 mM NaCl, 25 mM Sodium Phosphate, pH 7.5). The system was incubated at room temperature for 5 minutes with gentle shaking. The solution was discarded and 10 µL of streptavidin in 20 mL of solution A was added in the reaction container and incubated at room temperature for 5 minutes with gentle shaking. The solution was discarded. Then the membrane was washed 3 times by using solution B (1:10 of solution A in steriled water) with gentle shaking for 5 min. […]

[2] = target: Glycated human serum albumin (GHSA) (Homo sapiens, UniProt P02768 P02768:25-609); assay: EMSA; unit as printed (umole); 25 C 1 h; also EMSA positive in Table 6 and direct ELISA positive
Procedure: Step 5: Aptamer analysis using Phototope®-Star Detection Kit (New England Biolabs) Nylon membrane was removed from the transferring set up and put in the clear plastic container containing solution A (5% Sodium Dodecyl Sulfate (SDS), 125 mM NaCl, 25 mM Sodium Phosphate, pH 7.5). The system was incubated at room temperature for 5 minutes with gentle shaking. The solution was discarded and 10 µL of streptavidin in 20 mL of solution A was added in the reaction container and incubated at room temperature for 5 minutes with gentle shaking. The solution was discarded. Then the membrane was washed 3 times by using solution B (1:10 of solution A in steriled water) with gentle shaking for 5 min. Then the washing buffer was discarded before the next round washing. […] in 20 mL of solution A was added in the container. Then the system was incubated at room temperature for 5 minutes with gentle shaking. Then the solution is discarded. The membrane was washed 3 times by solution C (10 mM Tris HCl, 10 mM NaCl, 1 mM […], pH 9.50) with gentle shaking and then solution is discarded. […]
The quantitative binding of G8 aptamer from this invention and clone 9 aptamer from the previous study were analyzed by electromobility shifted assay (EMSA) and results were compared. […]

[3] = target: T1, Human serum albumin (HSA); assay: ELONA; indirect ELISA: + at 200, 2, 0.2 nM, - at 20 nM; PBST, room temperature
Excerpt: The binding assay of selected aptamers against HSA and aptamers against GHSA is deteimined by using Indirect Enzyme-Linked Immunosorbent Assay (Indirect ELISA) and Direct Enzyme-Linked Immunosorbent Assay (Direct ELISA), as described below. 3.1. Indirect Enzyme-Linked Immunosorbent Assay (Indirect ELISA) The principle of this experiment is based on two antibodies, which are antibodies against 5' biotinylated aptamer and antibodies against the first antibody. The second antibody is conjugated with horseradish peroxidase enzyme (HRP), which can changes TMB color from blue to be yellow. The yellow color intensity is direct indicator for the target protein concentration. Random selected aptamers in Table 5 and Table 6 were chosen for analysis using this method. Indirect ELISA Protocol Step 1: 0.8 μg of BSA or HSA or GHSA was added in 50 μl of 0.05 M carbonate buffer in 96 well plate (50 μL/well) and incubated at 4° C. for 1 night. In this process, all proteins will be coated on the 96 well plate.
Step 2: The reaction from step 1 was washed 5 times with Phosphate buffer (PBST) (0.05% Tween) using ELISA washing machine (Fluido 2) and tapped for 3-5 times.
Step 8: 50 μL of 0.6 M H_2SO_4 was added in the reaction and immediately measured the $OD_{450\ nm}$ using spectrophotometer.

[4] = target: T1, Human serum albumin (HSA); assay: EMSA; 25 C 1 h
Procedure: as §1

T1 sequence (P02768 25-609, one chain of several): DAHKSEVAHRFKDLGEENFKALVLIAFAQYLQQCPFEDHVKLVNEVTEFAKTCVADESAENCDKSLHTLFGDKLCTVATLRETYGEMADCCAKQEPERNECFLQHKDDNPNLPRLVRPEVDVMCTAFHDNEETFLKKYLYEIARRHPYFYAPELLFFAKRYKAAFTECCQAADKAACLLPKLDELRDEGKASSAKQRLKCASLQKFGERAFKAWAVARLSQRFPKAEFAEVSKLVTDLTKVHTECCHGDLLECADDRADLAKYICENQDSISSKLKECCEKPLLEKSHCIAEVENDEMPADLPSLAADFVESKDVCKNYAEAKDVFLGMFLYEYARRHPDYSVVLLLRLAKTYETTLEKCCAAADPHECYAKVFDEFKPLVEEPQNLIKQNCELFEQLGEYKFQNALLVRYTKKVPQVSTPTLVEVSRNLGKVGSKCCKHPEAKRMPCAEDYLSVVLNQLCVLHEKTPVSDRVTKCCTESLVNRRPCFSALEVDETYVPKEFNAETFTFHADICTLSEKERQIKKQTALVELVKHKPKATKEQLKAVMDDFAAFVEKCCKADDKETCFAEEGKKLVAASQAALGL
Sequence of Glycated human serum albumin (GHSA) (P02768 25-609, one chain of several): as above

B1: H14 (ssDNA)
DNA: ATACCAGCTTATTCAATTCGCGCACATATACAGGGCTTTACCAGCGGGGAAGGTTAGCGACGCGAGGGGGAGATAGTAAGTGCAATCT
B1: binds [1].

GGTGCGGTTCGTGCGGTTGTAGTACTCGTGGCCGATAGAGGTAGTTTCG (ssDNA) [G8]: binds [2].

B2: clone 9 (ssDNA)
DNA: TAACTCACTCCATACTCACTTGCTGATTCGCCAACAACACACCCTTAAACAGTCCC
B2: binds [3].

B3: H8 (ssDNA)
DNA: ATACCAGCTTATTCAATTCCCCCGGCTTTGGTTTAGAGGTAGTTGCTCATTACTTGTACGCTCCGGATGAGATAGTAAGTGCAATCT
B3: binds [4].
